A word on the stoichiometry N: it is the number of molecules, sites or subunits per partner or assembly.

This note sets out measurements from paper PMC12527940, “Conformational plasticity of a BiP–GRP94 chaperone complex” (Nature Structural & Molecular Biology, 2025).

Series [1] has as its target His6-tagged BiP (residues 27–655) (UniProt P20029). Kind of series: pull-down; Ni-NTA pull-down of His6-tagged BiP protein (4 µM) with 4 µM Strep-tagged or untagged GRP94 protein; 60 min at 37 °C, 50 mM HEPES pH 7.5, 50 mM NaCl, 2 mM MgCl2, 50 µM ATP, 3 µM BSA; Coomassie bands quantified.
The target in series [2] is Strep–linker–TEV site–GRP94 (73–802) (UniProt P08113). Nature of the series: negative-stain EM; 16 µM BiP and 32 µM HT2 reacted with 32 µM HyT36, 30 min at 37 °C with 50 µM ATP, then 16 µM GRP94 Δ72; GraFix (5–45% glycerol, 0.5% glutaraldehyde), fraction 12; single-particle negative stain, models fitted with Rosetta at 20 Å.
The target of the next series is BiP-E243K (UniProt P20029). Kind of series: pull-down; Ni-NTA pull-down of His6-tagged BiP protein (4 µM) with 4 µM Strep-tagged or untagged GRP94 protein; 60 min at 37 °C, 50 mM HEPES pH 7.5, 50 mM NaCl, 2 mM MgCl2, 50 µM ATP, 3 µM BSA; Coomassie bands quantified.
Series [3] deals with the molecule itself. Nature of the series: cross-linking; XL-MS: DSBU crosslinking (4 µM each), high-molecular-weight SDS–PAGE bands digested and analysed by LC–MS/MS, 5% FDR on residue pairs; GRP94 Δ72^noPT samples with 100 µM PU-WS13.

“And” between values parts separate entries of the source, which are not always exact repeats. Identical values can stand only once.

“GRP94 Δ72^noPT (from UniProt P08113 73-802) (domain or fragment)” registered a percent reduction of GRP94 bound, against GRP94 Δ72 with its tag in series [1] of 65%.

Molecule “GRP94-K463E (Strep-tagged GRP94 Δ72 interface I mutant) (from UniProt P08113 73-802) (domain or fragment)” registered a percent reduction of GRP94 Δ72 copurified, against the wild-type pair in series [1] of 85%.

The molecule “GRP94-K467E (Strep-tagged GRP94 Δ72 interface I mutant) (from UniProt P08113 73-802) (domain or fragment)” yielded a percent reduction of GRP94 Δ72 copurified, against the wild-type pair in series [1] of 85%.

Take “His6-tagged BiP (residues 27–655) (from UniProt P20029 27-655) (natural protein)”: in series [2], the stoichiometry N (BiP per GRP94 dimer) was 1 and 2.

For the molecule “Strep-tagged GRP94 Δ72-R116G interface II mutant (from UniProt P08113 73-802) (domain or fragment)”, the percent decrease of binding, against GRP94 Δ72 in series [1] was found to be 30%.

“Strep–linker–TEV site–GRP94 (73–802) (from UniProt P08113 73-802) (domain or fragment)” displayed a percent reduction of GRP94 Δ72 copurified, against the wild-type pair in the series with BiP-E243K of 85%. The molecule also showed a stoichiometry N in series [2] of 2.

B1: Strep-tagged GRP94 FL (residues 23–802) (natural protein, mouse (cDNA of C2C12 cells), UniProt P08113 23-802, looked up)
chain: DEVDVDGTVEEDLGKSREGSRTDDEVVQREEEAIQLDGLNASQIRELREKSEKFAFQAEVNRMMKLIINSLYKNKEIFLRELISNASDALDKIRLISLTDENALAGNEELTVKIKCDKEKNLLHVTDTGVGMTREELVKNLGTIAKSGTSEFLNKMTEAQEDGQSTSELIGQFGVGFYSAFLVADKVIVTSKHNNDTQHIWESDSNEFSVIADPRGNTLGRGTTITLVLKEEASDYLELDTIKNLVRKYSQFINFPIYVWSSKTETVEEPLEEDEAAKEEKEESDDEAAVEEEEEEKKPKTKKVEKTVWDWELMNDIKPIWQRPSKEVEEDEYKAFYKSFSKESDDPMAYIHFTAEGEVTFKSILFVPTSAPRGLFDEYGSKKSDYIKLYVRRVFITDDFHDMMPKYLNFVKGVVDSDDLPLNVSRETLQQHKLLKVIRKKLVRKTLDMIKKIADEKYNDTFWKEFGTNIKLGVIEDHSNRTRLAKLLRFQSSHHSTDITSLDQYVERMKEKQDKIYFMAGSSRKEAESSPFVERLLKKGYEVIYLTEPVDEYCIQALPEFDGKRFQNVAKEGVKFDESEKTKESREATEKEFEPLLNWMKDKALKDKIEKAVVSQRLTESPCALVASQYGWSGNMERIMKAQAYQTGKDISTNYYASQKKTFEINPRHPLIRDMLRRIKEDEDDKTVMDLAVVLFETATLRSGYLLPDTKAYGDRIERMLRLSLNIDPEAQVEEEPEEEPEDTSEDAEDSEQDEGEEMDAGTEEEEEETEKESTEKDEL
notes: cloned from C2C12 complementary DNA into pET21d; also called Strep–GRP94 FL; FL GRP94 wild-type protein; source: E. coli BL21(DE3), purified (StrepTrap HP, SEC); not shown: Strep, N-terminal, kept
B1 yielded a percent less GRP94 pulled down, against GRP94 Δ72 in series [1] of 75%. The binding result in series [3] is given as “binds”.
